2 substances from patent US6090388 can be followed below.

Read-outs that look alike come from different tables or passages of the source. Where only a bound is given, the exact number is not on record here.

The target of test [1] is human CD4 on the surface of CD4-expressing T cells (human).
The target is the same in test [2]. This is another data set of the same source.
For test [3] the target is unchanged. Put plainly: IFA on MT2 T cells.
Test [4] shares this target. Description: B4-biotin + FITC-avidin on MT2 T cells after medium alone.
Test [5] deals with gp120 of HIV-1 primary isolate TH036 (clade E) (HIV-1).
Test [6] has as its target gp120 of HIV-1 primary isolate UG029 (clade A) (HIV-1).
The target in test [7] is gp120 of HIV-1 primary isolate UG266 (clade D) (HIV-1).
The target in test [8] is gp120 of HIV-1 primary isolate VL 135 (clade B) (HIV-1).
Test [9] has as its target gp120 of HIV-1 primary isolate ZIM 748 (clade C) (HIV-1).

monoclonal antibody B4 came in with a % Pos cells in test [1] of 0%. Further, in test [2], the 90% neutralization, MT-2 microplaque assay, HIV-1 DH12 (clade B) was found to be 2.1 µg/mL; the 90% neutralization, MT-2 microplaque assay, HIV-1 TH036 (clade E) was determined as 3.32 µg/mL; the 90% neutralization, MT-2 microplaque assay, HIV-1 UG266 (clade D) came to 25.6 µg/mL; the 90% neutralization, MT-2 microplaque assay, HIV-1 UGO29 (clade A) stood at 6.76 µg/mL. In test [2], this substance showed a 90% neutralization, MT-2 microplaque assay, HIV-1 VL 135 (clade B) of 1.54 µg/mL and a 90% neutralization, MT-2 microplaque assay, HIV-1 ZIM 748 (clade C) of 2.82 µg/mL. In test [3], this substance registered a % Pos cells of more than 95%. In test [4], the % Pos cells is more than 95%.
As to “recombinant human monoclonal antibody IgG1 b12”, the 90% neutralization, MT-2 microplaque assay, HIV-1 TH036 in test [5] is more than 50 µg/mL. The same substance displayed a 90% neutralization, MT-2 microplaque assay, HIV-1 UGO29 in test [6] of 38.5 µg/mL. For the same substance, the 90% neutralization, MT-2 microplaque assay, HIV-1 UG266 in test [7] is more than 50 µg/mL. This substance also had a 90% neutralization, MT-2 microplaque assay, HIV-1 VL 135 in test [8] of 41.7 µg/mL. In [9], this substance displayed a 90% neutralization, MT-2 microplaque assay, HIV-1 ZIM 748 of more than 50 µg/mL.
